Data as given in the supplement of paper PMC7125110.
± gives the standard error. This sample holds only a part of the variants without activity.

B1: glmS ribozyme (parent)
chain: AUAAAAGCGCCAGAACUACAGAAAUGUAGUUGACGAGGAGGAGGUUUAUCGAAUUUUCGGCGGAUGCCUCCAAA

Variants of: B1
Assay: self-cleavage kobs at 640 uM GlcN6P; higher = faster cleavage; RNA array
Settings: with glucosamine-6-phosphate
Summary of the method: (§1)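 The measurements used barcoded ribozyme variants on sequenced MiSeq chips, transcribed in situ by E. coli RNA polymerase and tracked at 37 °C with a hybridised Cy3 probe. Glucosamine-6-phosphate, 40 μM to 10 mM in HEPES/KCl/Mg(OAc)2 buffer, was flowed in while tiles were imaged over ~14 h. Baseline-normalised signals, also normalised to non-cleaving reference variants, gave per-tile medians that were fit to one- or two-exponential decays for kobs. kcat and KM resulted from weighted Michaelis–Menten fits across concentrations.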

Variant | self-cleavage kobs at 640 uM GlcN6P
AUAAAAGGUGCAGAACUACAGAAAUGUAGUUGACGAGGAGGAGGUUUAUCGAAUUUUCGGCGGAUGCCUCCAAA | < 1e-05 s⁻¹
AUAAAAGUGCCAGAUCUACAGAAAUGUAGUUGACGAGGAGGAGGUUUCUCGCAUUUUCGGCGGAUGCCUUCAAA | < 1e-05 s⁻¹
AUAAAAGUGCCAGAACUACAGAAAUGUAGUUGACGAGGAGGGGGUUUCUCGAAUUUUCGGCGGAUGCCUCCAAA | < 1e-05 s⁻¹
AUAAAAGAGCCAGAACUACAGAAAUGUAGCUGACGAGGAGGAGGUUUAUCUAAUUUUCGGCGGAUGCCUCCAAA | < 1e-05 s⁻¹
AUAAAAGAGCCAGAACUACAGAAAUGUAGUGGACGAGGAGGAGGUUUAUCGAAUUUUCGGAGGAUGCCUCCAAA | < 1e-05 s⁻¹
AUAAAAGGGCCAGAACUACAGAAAUGUAGUUGACGAGGAGUAGGUUUAUCGAAUUUUCGGAGGAUGCCUCCAAA | < 1e-05 s⁻¹
AUAAAAGUGCCAGAACUACAGAAAUGUAGUUGACGAGGAGGAGGUUUAUCGAGUAUUCGGCGGAUGCGUCCAAA | 0.000442 ± 0.00017 s⁻¹
AUAAAAGGGCCAGAAGUACAGAAAUGUAGUUGACGAGAAGGAGGUUUAUCGAAUUUUCGGCGGAUGCCUCCAAA | < 1e-05 s⁻¹
AUAAAAGUGCCAGAACUACAGAAAUGUAGUUGACGAGGAGGAGGUUUAUCGAAUUUUCGGCGGGUGGCUCCAAA | < 1e-05 s⁻¹
AUAAAAGGGCCAGAACUACAGAAAUGUAGUUGACGAGGAGUAGGUUUUUCGAAUUUUCGGCGGAUGCCUUCAAA | < 1e-05 s⁻¹
AUAAAAGGGCUAGAUCUACAGAAAUGUAGUUGACGAGGAGGAGGUUUAUCGAAUUUGCGGCGGAUGCCUCCAAA | < 1e-05 s⁻¹
AUAAAAGUGCCUGAACUACAGAAAUGUAGUUGACGAGGAGGAGGUUUAUCUAAUUUUCGGCGGAUGCCUCCAAA | < 1e-05 s⁻¹
AUAAAAGGGCCAGAACUACAGAAAUGUAGUUGACGAGGAGGAGGUUUAUCGAAUUUUUCGUGGAUGGCUCCAAA | < 1e-05 s⁻¹
AUAAAAGGGCCAGAACUACAGAAAUGUAGUUCUCGAGGAGGAGGUUUAUCGAAUUUUCGGCGGAUGUCUCCAAA | < 1e-05 s⁻¹
AUAAAAGGGGCUGGACUACAGAAAUGUAGUUGACGAGGAGGAAGUUUAUCGAAUUUUUGGCGGAUGCCUCCAAA | < 1e-05 s⁻¹
AUAAAAGUGCCAGACCUACAGAAAUGUAGUUGUCGACGAGGAGGUUUAUCGAAUUUUCGGCGGAUGCCUCGAAA | 5.18e-05 ± 2.5e-05 s⁻¹
AUAAAAGGGCCACAACUACAGAAAUGUAGUUGACGAGUAGGAGGUUUAUGGAAUUUUCGGCGGAUGCCUCCAAA | 4.5e-05 ± 2.2e-05 s⁻¹
AUAAAAGGGCCAGAACUACAGAAAUGUAGUUGACGGGGUGGAUGUUUAUCGAAUUUUCGGCGGAUGCCUCCAAA | < 1e-05 s⁻¹
AUAAAAGGGCCAGAACUACAGAAAUGUAGUUGACGAGGAGAAGGUUUAUCGUAUUUUCGGCGGAUGCCUCCAAA | < 1e-05 s⁻¹
AUAAAAGGGCCAGAACUACAGAAAUGUAGUUAACGAGGAGGAGGUUUAUCGAAUUUGCGGCGGAUGUCUCCAAA | < 1e-05 s⁻¹
AUAAAAGUGCCCGAACUACAGAAAUGUAGUUGACGAGGAGGAGGUUUAACGAAUUUUCGGCGGAUGCCUCCAAA | < 1e-05 s⁻¹
AUAAAAGAGCCAGAACUACAGAAAUGUAGUUGACGAGGAGGAGGCUUAUCGAAUUUUCGGCGGAUGUCUCCAAA | < 1e-05 s⁻¹
AUAAAAGGGCCAAAACUACAGAAAUGUAGUUGACGAGGAGGAGGUUUAUCGAAUUCUCGGCGGAUGCCUCCAAA | < 1e-05 s⁻¹
AUAAAAGGGCCAGCACUACAGAAAUGUACUUGAAGAGGAGGAGGUUUAUCGAAUUUUCGGCGGAUGUCUCCAAA | < 1e-05 s⁻¹
AUAAAAGAGCCAGAACUACAGAAAUGUAGUUGACUAGGAGGAGGUUUAUCGAAUUUUCGGCGGAUGCCUGCAAA | 0.000526 ± 0.0002 s⁻¹
AUAAAAGUGCCAGCCCUACAGAAAUGUAGUUGACGAGGAGGAGGUUUAUCGAAUUUUCGGCGGAUGCCUCCAAA | < 1e-05 s⁻¹
AUAAAAGGGCCAGAACUACAGAAAUGUAGUUUACGAGGAGGAGGUUGAUCGAAUUUUCGGCGGAUGGGUCCAAA | 0.000105 ± 3.3e-05 s⁻¹

Variants of: B1
Assay: self-cleavage kobs at 2500 uM GlcN6P; higher = faster cleavage; RNA array
Settings: with glucosamine-6-phosphate
Summary of the method: as §1

Variant | self-cleavage kobs at 2500 uM GlcN6P
AUAAAAGUGCCAGAACUACAGAAAUGUAGUUGACGAGGAGGGGGUUUCUCGAAUUUUCGGCGGAUGCCUCCAAA | < 1e-05 s⁻¹
AUAAAAGUGCCUGAACUACAGAAAUGUAGUUGACGAGGAGGAGGUUUAUCUAAUUUUCGGCGGAUGCCUCCAAA | < 1e-05 s⁻¹
AUAAAAGGGCCAGAACUACAGAAAUGUAGUUGACGAGGAGGAGGUUUAUCGAAUUUUUCGUGGAUGGCUCCAAA | < 1e-05 s⁻¹
AUAAAAGGGCCAGAACUACAGAAAUGUAGUUCUCGAGGAGGAGGUUUAUCGAAUUUUCGGCGGAUGUCUCCAAA | < 1e-05 s⁻¹
AUAAAAGGGCCAGAACUACAGAAAUGUAGUUGACGGGGUGGAUGUUUAUCGAAUUUUCGGCGGAUGCCUCCAAA | < 1e-05 s⁻¹
AUAAAAGGGCCAGAACUACAGAAAUGUAGUUGACGAGGAGAAGGUUUAUCGUAUUUUCGGCGGAUGCCUCCAAA | < 1e-05 s⁻¹
AUAAAAGGGCCAGAACUACAGAAAUGUAGUUUACGAGGAGGAGGUUGAUCGAAUUUUCGGCGGAUGGGUCCAAA | 4.39e-05 ± 2.1e-05 s⁻¹

Variants of: B1
Assay: self-cleavage kobs at 10000 uM GlcN6P; higher = faster cleavage; RNA array
Settings: with glucosamine-6-phosphate
Summary of the method: as §1

Variant | self-cleavage kobs at 10000 uM GlcN6P
AUAAAAGAGCCAGAACUACAGAAAUGUAGUGGACGAGGAGGAGGUUUAUCGAAUUUUCGGAGGAUGCCUCCAAA | < 1e-05 s⁻¹
AUAAAAGAGCCAGAACUACAGAAAUGUAGUUGACUAGGAGGAGGUUUAUCGAAUUUUCGGCGGAUGCCUGCAAA | 7.27e-05 ± 2.4e-05 s⁻¹
